US20250257112A1

Target: PTH receptor ("PTHIR")
Experiment: cell-based or functional assay

Substance: PTH(1-84)-Fc with F34A, V35S (Fc fusion)
- cAMP potency (EC50): 0.28 nM

Substance: PTH-67, PTH(1-64)-[F34A, V35S]-hFcLALA-deltaLys (Fc fusion)
- cAMP potency (EC50): 0.24 nM

Substance: PTH-68, PTH(1-54)-[F34A, V35S]-hFcLALA-deltaLys (Fc fusion)
- cAMP potency (EC50): 0.21 nM

Substance: PTH-66, PTH(1-74)-[F34A, V35S]-hFcLALA-deltaLys (Fc fusion)
- cAMP potency (EC50): 0.24 nM
